Test results from US20140242083A1 (Hoffmann-La Roche, published 2014).

What was measured:
[1] = molecular target: T1, human MCSP (melanoma chondroitin sulfate proteoglycan) on melanoma cells (human, UniProt Q6UVK1 30-2322); assay: FACS titration on A375 melanoma cells, FITC anti-human IgG Fc secondary antibody
T1 construct: Native MCSP on the human melanoma lines Colo38, A2058 and A375; also called surface MCSP; CSPG4
Method: (§1) Binding activity was determined by the following method. Target cells were detached from culture flask with cell dissociation buffer, counted and checked for viability. Cells were resuspended and adjusted to 1.111×10⁶ (viable) cells/ml in PBS-0.1% BSA. 180 μl of this suspension were transferred to each well (200,000 cells/well) in a round bottom 96-well-plate, centrifuged for 4 min, at 400 g, and resuspended. 20 μl of antibody dilutions in PBS-0.1% BSA (from 10 μg/ml to […]) were added to each well. The samples were centrifuged for 4 min, at 400 g, and resuspended. Secondary antibody, FITC-conjugated AffiniPure F(ab′)2 fragment goat anti-human IgG Fcg Fragment Specific (Jackson Immuno Research Lab #109-096-098)), was added and the sample centrifuged for 4 min, at 400 g, and resuspended. Fluorescence was measured in flow cytometer (e.g. FACS Canto II). Antibody 9.2.27, described in Morgan A C Jr, Galloway D R, Reisfeld R A. Hybridoma. 1981; 1(1):27-36.; GenBank Accession Numbers: GI:20797193 and GI:20797189 for light and heavy chain respectively, was used as a reference (FIG. 2). Human melanoma cell-lines Colo38, A2058, and A375 were used. Giacomini et al. 1985 (for Colo38). Marquardt H, Todaro G J. J Biol. Chem. 1982 May 10; 257(9):5220-5 (for A2058). Geiser M, Schultz D, Le Cardinal A, Voshol H, Garcia-Echeverria C. Cancer Res. 1999 Feb. 15; 59(4):905-10 (for A375).

[2] = molecular target: T1, human MCSP (melanoma chondroitin …); assay: FACS titration on Colo38 melanoma cells, FITC anti-human IgG Fc secondary antibody
Method: as §1

[3] = molecular target: T2, human MCSP D3 domain expression construct (C-terminal part, N-terminal FLAG-tag) in HEK-EBNA cells (human, UniProt Q6UVK1 1582-2224, limits assumed); assay: flow cytometry titration of LC007 on HEK-EBNA cells expressing the construct; untreated EBNA cells as control
T2 construct: 'A similar construct' to the cynomolgus one; it is not clear whether the signal peptide and FLAG-tag are part of it; also called corresponding human expression construct; human counterpart
T2 sequence: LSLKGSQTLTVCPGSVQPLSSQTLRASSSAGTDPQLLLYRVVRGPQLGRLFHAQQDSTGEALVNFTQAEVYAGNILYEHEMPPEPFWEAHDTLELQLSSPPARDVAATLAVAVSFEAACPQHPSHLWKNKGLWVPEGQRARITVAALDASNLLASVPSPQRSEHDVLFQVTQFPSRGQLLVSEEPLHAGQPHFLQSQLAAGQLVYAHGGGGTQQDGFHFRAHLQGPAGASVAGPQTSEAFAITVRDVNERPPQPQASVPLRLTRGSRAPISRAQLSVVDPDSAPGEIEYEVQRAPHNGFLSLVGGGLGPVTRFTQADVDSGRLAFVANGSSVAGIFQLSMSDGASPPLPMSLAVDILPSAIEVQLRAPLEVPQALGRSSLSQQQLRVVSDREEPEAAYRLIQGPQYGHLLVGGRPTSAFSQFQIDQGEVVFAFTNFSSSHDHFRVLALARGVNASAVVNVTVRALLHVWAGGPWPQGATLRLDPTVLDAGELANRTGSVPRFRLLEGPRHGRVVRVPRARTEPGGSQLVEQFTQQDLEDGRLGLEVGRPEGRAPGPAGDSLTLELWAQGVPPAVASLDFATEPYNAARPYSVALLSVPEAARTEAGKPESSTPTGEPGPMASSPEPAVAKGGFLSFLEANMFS

[4] = molecular target: T3, cynomolgus MCSP D3 domain expression construct (C-terminal part, N-terminal FLAG-tag) in HEK-EBNA cells (cynomolgus, UniProt Q6UVK1 1582-2224 (human entry), limits assumed); assay: as above
T3 construct: Tested by flow cytometry on transfected cells; the membrane anchor is not described; also called cynomolgus construct; cynomolgus antigen
T3 chain: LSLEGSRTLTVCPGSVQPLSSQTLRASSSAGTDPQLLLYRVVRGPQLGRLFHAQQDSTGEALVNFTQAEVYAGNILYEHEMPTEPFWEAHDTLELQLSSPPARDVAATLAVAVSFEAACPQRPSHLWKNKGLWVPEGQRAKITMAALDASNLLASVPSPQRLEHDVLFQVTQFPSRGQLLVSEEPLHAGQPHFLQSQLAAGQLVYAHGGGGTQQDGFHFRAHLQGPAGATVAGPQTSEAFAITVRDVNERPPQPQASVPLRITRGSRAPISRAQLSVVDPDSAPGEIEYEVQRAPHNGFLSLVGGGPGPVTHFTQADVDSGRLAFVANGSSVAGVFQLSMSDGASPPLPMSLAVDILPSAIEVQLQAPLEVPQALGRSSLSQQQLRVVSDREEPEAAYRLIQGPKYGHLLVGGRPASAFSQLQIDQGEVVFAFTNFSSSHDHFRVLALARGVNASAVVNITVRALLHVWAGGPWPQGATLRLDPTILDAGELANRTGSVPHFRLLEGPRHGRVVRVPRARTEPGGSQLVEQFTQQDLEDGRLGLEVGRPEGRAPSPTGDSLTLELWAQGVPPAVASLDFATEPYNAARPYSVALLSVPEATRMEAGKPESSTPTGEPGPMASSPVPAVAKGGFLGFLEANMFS

[5] = molecular target: T1, human MCSP (melanoma chondroitin …); assay: FACS titration on A2058 melanoma cells, FITC anti-human IgG Fc secondary antibody
Method: as §1

[6] = molecular target: T4, Construct 1 (CSPG repeat 15 of human MCSP with the natural transmembrane domain) (human, UniProt Q6UVK1 2044-2246); assay: FACS titration of LC007 on HEK-EBNA cells transfected with the construct; mock-transfected cells as control
T4 construct: Expressed on HEK-EBNA cells; contains the original transmembrane region; also called MCSP repeat 15 construct
T4 sequence: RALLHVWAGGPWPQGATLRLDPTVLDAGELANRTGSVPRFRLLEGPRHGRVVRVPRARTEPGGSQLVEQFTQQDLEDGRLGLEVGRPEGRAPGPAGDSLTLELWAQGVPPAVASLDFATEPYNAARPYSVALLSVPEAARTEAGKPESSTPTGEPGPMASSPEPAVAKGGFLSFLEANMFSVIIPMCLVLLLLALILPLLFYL

[7] = molecular target: T5, Construct 4 (CSPG repeat 12-15 of human MCSP) (human, UniProt Q6UVK1 1702-2246); assay: FACS titration of LC007 on HEK-EBNA cells transfected with the construct; mock-transfected cells and isotype as controls
T5 construct: Expressed on HEK-EBNA cells; contains the original transmembrane region
T5 sequence: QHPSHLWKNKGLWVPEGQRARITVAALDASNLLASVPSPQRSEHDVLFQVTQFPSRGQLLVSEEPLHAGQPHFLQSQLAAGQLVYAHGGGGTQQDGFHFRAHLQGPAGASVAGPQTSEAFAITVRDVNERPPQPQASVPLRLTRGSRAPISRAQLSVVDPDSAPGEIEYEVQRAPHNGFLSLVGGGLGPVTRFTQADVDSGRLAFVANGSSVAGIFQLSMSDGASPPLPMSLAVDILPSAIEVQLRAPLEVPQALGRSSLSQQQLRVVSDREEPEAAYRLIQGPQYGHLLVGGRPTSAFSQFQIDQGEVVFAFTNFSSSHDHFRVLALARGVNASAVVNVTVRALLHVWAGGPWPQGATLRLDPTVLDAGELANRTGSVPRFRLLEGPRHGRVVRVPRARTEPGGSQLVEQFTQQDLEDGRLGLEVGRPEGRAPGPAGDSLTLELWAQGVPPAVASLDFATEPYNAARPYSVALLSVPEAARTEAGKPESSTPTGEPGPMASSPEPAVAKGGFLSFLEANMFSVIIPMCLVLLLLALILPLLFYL

T1 sequence (Q6UVK1 30-2322 limits assumed): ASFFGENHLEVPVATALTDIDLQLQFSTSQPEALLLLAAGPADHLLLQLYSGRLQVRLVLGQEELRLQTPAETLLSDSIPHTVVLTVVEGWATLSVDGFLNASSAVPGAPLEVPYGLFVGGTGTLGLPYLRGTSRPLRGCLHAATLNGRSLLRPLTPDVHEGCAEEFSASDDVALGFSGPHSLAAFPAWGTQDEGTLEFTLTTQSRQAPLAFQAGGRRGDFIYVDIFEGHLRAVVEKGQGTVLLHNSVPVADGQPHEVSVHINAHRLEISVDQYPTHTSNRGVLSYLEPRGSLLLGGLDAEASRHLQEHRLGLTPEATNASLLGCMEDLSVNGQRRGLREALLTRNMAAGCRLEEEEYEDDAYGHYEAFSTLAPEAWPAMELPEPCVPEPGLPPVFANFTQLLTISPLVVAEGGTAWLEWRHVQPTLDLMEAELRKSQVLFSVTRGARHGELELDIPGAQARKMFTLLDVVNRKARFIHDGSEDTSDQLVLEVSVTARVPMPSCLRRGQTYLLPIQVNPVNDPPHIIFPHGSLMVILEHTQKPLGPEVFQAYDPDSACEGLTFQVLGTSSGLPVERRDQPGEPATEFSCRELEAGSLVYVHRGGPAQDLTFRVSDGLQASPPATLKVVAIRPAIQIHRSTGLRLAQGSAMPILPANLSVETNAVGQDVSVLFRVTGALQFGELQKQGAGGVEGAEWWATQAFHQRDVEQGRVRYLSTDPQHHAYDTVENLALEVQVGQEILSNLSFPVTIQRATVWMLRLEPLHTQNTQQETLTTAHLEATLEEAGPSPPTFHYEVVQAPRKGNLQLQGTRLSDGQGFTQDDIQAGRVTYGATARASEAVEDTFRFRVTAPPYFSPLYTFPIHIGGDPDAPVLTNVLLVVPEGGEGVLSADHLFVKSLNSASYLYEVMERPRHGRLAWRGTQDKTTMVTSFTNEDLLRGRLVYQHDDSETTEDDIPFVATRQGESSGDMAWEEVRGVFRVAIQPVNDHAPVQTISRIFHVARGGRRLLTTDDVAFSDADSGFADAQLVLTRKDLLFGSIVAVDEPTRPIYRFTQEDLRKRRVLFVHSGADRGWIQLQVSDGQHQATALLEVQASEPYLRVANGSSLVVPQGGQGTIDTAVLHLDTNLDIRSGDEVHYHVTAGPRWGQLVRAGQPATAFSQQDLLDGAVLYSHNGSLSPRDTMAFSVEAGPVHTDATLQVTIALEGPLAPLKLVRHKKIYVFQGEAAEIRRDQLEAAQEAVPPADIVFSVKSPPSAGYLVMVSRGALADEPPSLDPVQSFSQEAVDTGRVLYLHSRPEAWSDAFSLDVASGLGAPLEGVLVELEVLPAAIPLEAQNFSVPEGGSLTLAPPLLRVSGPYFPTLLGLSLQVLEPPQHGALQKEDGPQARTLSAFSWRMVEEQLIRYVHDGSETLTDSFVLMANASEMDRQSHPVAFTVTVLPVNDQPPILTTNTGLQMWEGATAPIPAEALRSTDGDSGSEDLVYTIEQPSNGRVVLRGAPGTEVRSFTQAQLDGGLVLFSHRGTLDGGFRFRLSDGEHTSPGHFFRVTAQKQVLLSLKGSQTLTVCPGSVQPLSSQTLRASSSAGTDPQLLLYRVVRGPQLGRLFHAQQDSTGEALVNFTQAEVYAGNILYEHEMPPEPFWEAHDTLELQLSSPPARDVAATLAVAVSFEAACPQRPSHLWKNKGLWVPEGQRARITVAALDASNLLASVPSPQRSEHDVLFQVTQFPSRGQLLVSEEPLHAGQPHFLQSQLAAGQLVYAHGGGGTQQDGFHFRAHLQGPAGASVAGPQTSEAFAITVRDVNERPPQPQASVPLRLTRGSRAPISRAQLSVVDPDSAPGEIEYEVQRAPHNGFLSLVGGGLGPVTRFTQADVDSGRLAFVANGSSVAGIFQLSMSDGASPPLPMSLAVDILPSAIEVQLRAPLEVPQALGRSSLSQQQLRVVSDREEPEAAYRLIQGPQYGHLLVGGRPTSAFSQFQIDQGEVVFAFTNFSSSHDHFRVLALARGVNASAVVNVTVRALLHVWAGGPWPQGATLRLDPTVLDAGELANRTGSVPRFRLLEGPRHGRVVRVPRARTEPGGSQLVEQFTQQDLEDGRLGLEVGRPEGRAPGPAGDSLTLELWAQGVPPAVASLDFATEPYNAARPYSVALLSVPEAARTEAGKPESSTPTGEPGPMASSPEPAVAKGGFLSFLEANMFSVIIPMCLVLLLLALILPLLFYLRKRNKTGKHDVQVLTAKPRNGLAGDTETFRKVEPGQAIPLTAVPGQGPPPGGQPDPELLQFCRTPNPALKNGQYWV

- EC50 (read off the curve) [1]: ~0.05 µg/mL
- EC50 (read off the curve) [2]: ~0.05 µg/mL
- EC50 (read off the curve) [3]: ~0.08 µg/mL
- EC50 (read off the curve) [4]: ~0.1 µg/mL
- EC50 (read off the curve) [5]: ~0.03 µg/mL
- binding result [6]: no binding (tested: 5 ug/ml)
- EC50 (read off the curve) [7]: ~0.3 µg/mL
B1: chimeric antibody LC007 (antibody, human IgG1, kappa, V domains shown)
VH: EVQLQESGPGLVKPSQSLSLTCSVTGYSITSGYYWNWIRQFPGNKLEWMGYITYDGSNNYNPSLKNRISITRDTSKNQFFLKLNSVTTEDTATYYCADFDYWGQGTTLTVSS
VL: DIVLTQSPSSLSASLGDRVTISCSASQGIRNYLNWYQQRPDGTVKLLIYYTSSLHSGVPSRFSGSGSGTDYSLTISNLEPEDIATYYCQQYSKLPWTFGGGTKLEIKR
notes: all such entries are written under the chimeric antibody; also called LC007 antibody; LC007 wt
